Results as given in article PMC5058748, “ZNF224, Krüppel like zinc finger protein, induces cell growth and apoptosis-resistance by down-regulation of p21 and p53 via miR-663a”.

B1: CAGCTTC hairpin oligo (dsDNA)
DNA 1: CCAAGAAGCTGAAAGGGAAAAACCCTTTCAGCTTCTTGG
DNA 2: CCAAGAAGCTGAAAGGGTTTTTCCCTTTCAGCTTCTTGG
B2: CAGCGTC hairpin oligo (dsDNA)
DNA 1: CCAAGACGCTGAAAGGGAAAAACCCTTTCAGCGTCTTGG
DNA 2: CCAAGACGCTGAAAGGGTTTTTCCCTTTCAGCGTCTTGG
B3: GCAGCAA hairpin oligo (dsDNA)
DNA 1: CCAAGCAGCAAAAAGGGAAAAACCCTTTTTGCTGCTTGG
DNA 2: CCAAGCAGCAAAAAGGGTTTTTCCCTTTTTGCTGCTTGG

Molecular target: FLAG-ZNF224 (UniProt Q9NZL3 1-707)
Sequence (Q9NZL3 whole entry): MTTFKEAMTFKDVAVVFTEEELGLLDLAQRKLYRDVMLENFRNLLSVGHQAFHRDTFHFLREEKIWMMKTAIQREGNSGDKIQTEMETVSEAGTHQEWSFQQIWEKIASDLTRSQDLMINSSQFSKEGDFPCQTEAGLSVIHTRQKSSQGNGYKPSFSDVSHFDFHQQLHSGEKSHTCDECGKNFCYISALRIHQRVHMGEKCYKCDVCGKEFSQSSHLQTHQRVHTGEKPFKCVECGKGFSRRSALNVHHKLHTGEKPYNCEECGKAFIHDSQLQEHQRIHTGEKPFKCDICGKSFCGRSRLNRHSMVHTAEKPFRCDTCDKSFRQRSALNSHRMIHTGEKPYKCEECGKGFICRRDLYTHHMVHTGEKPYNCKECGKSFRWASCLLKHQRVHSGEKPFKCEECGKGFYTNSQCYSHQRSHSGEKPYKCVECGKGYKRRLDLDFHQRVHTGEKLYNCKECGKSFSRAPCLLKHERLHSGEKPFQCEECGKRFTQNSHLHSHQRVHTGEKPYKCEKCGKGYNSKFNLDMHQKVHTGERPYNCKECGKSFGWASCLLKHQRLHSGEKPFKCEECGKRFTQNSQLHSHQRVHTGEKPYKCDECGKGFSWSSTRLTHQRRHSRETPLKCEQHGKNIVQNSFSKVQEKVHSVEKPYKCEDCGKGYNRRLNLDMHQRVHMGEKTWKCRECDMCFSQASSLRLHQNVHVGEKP
Assay: SPR; protein immobilized, oligo as analyte; SPR: 1x PBS, Reichert SR7500DC, CMDH chip, oligo 0-10 uM; pH and temperature not stated; ELISA buffer not in material
Settings: protein: recombinant; tags: 3xFLAG; label: 5'-biotin (ELISA oligos); hairpin

Row | Binder | Kd
1 | B1 | 1250 ± 60 nM
2 | B2 | 2000 ± 100 nM
3 | B3 | 420 ± 30 nM
